Test results: paper PMC5806898

What was measured:
CD8-sortilin = CD8-sortilin (UniProt Q99523); experiment: co-IP; native immunoprecipitation with anti-CD8 and protein A-Sepharose from HeLa cells expressing CD8-CIMPR or CD8-sortilin (control: HeLa cells); western blot, bands quantified with IMAGEJ, 3 repeats
CD8-CIMPR = CD8-CIMPR (UniProt P11717); experiment: as above
Sequence of UniProt P11717 (P11717 whole entry): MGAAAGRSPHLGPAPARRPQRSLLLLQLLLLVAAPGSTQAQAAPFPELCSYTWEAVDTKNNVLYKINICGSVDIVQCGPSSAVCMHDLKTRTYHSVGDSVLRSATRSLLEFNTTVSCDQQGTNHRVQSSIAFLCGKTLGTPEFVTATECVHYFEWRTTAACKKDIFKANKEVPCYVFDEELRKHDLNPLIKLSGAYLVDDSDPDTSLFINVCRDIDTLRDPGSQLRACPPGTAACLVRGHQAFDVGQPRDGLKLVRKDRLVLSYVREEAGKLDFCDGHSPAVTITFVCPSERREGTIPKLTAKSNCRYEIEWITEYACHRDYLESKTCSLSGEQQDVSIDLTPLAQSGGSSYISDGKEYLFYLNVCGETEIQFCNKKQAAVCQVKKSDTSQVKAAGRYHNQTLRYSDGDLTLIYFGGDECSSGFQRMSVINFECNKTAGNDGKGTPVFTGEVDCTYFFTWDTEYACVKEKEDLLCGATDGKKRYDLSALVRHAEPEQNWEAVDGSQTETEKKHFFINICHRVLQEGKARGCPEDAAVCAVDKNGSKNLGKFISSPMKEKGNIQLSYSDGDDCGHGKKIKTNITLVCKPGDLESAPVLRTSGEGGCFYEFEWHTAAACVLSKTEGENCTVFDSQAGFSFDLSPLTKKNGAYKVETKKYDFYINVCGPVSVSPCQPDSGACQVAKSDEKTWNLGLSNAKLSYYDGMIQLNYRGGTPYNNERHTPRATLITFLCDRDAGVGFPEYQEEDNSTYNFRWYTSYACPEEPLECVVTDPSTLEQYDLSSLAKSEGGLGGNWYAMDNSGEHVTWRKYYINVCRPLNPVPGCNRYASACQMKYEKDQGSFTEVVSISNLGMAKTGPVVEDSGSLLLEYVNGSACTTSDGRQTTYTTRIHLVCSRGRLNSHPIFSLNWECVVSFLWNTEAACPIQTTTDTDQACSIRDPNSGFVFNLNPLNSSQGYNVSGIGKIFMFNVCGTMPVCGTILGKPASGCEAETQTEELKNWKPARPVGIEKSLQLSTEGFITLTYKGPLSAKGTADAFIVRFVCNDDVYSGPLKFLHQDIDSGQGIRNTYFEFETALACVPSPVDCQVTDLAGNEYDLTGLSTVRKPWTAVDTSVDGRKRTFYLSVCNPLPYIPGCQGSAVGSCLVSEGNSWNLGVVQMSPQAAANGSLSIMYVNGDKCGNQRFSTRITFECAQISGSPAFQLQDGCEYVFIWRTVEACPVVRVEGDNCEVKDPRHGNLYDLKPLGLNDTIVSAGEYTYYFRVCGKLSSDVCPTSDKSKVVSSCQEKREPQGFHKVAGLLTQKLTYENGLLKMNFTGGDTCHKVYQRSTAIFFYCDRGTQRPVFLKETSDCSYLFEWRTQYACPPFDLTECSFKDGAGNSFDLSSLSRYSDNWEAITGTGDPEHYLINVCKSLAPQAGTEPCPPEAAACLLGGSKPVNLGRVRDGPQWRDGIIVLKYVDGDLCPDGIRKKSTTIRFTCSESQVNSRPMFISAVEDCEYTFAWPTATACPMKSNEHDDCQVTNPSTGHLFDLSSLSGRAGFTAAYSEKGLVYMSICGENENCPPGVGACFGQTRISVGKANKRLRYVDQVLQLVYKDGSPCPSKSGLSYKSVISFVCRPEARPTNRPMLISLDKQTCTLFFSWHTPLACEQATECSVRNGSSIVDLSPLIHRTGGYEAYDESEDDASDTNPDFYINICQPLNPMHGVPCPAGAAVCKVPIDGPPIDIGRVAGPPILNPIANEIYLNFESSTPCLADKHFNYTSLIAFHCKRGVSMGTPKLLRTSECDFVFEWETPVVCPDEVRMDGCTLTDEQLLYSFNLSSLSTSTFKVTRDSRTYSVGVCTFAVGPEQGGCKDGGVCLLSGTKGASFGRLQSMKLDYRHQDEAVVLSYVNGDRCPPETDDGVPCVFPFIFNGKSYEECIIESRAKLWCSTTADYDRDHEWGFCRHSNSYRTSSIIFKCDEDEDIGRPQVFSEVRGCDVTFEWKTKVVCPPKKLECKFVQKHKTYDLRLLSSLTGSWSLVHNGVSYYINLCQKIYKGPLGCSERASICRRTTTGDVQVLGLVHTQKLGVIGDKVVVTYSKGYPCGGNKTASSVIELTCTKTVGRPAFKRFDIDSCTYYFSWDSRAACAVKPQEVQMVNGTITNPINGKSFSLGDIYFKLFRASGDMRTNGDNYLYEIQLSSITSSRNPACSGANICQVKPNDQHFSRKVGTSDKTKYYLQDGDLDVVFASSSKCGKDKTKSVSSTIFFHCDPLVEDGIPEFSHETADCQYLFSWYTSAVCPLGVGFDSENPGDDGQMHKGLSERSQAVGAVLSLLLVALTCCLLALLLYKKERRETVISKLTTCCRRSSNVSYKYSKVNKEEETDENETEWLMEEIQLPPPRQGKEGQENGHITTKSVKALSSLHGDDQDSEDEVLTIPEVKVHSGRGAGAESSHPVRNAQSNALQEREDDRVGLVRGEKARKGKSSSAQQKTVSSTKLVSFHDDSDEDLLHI

percent of input pulled down (CD8-sortilin) [%]	percent of input pulled down (CD8-CIMPR) [%]	Molecule
0.05	0.1	AP-1 γ (from UniProt O43747 1-822) (natural protein)
0.15	0.15	SPG15 (from UniProt Q68DK2 1-2539) (natural protein)
0.23	0.08	AP-5 ζ subunit (natural protein) MFSAGAESLLHQAREIQDEELKKFCSRICKLLQAEDLGPDTLDSLQRLFLIISATKYSRRLEKTCVDLLQATLGLPACPEQLQVLCAAILREMSPSDSLSLAWDHTQNSRQLSLVASVLLAQGDRNEEVRAVGQGVLRALESRQPEGPSLRHLLPVMAKVVVLSPGTLQEDQATLLSKRLVDWLRYASLQQGLPHSGGFFSTPRARQPGPVTEVDGAVATDFFTVLSSGHRFTDDQWLNVQAFSMLRAWLLHSGPEGPGTLDTDDRSEQEGSTLSVISATSSAGRLLPPRERLREVAFEYCQRLIEQSNRRALRKGDSDLQKACLVEAVLVLDVLCRQDPSFLYRSLSCLKALHGRVRGDPASVRVLLPLAHFFLSHGEAAAVDSEAVYQHLFTRIPVEQFHSPMLAFEFIQFCRDNLHLFSGHLSTLRLSFPNLFKFLAWNSPPLTSEFVALLPALVDAGTALEMLHALLDLPCLTAVLDLQLRSAPAASERPLWDTSLRAPSCLEAFRDPQFQGLFQYLLRPKASGATERLAPLHQLLQPMAGCARVAQCAQAVPTLLQAFFSAVTQVADGSLINQLALLLLGRSDSLYPAPGYAAGVHSVLSSQFLALCTLKPSLVVELARDLLEFLGSVNGLCSRASLVTSVVWAIGEYLSVTYDRRCTVEQINKFFEALEALLFEVTQCRPSAALPRCPPQVVTVLMTTLTKLASRSQDLIPRASLLLSKMRTLAHSPATSSTHSEEGAEAIRTRATELLTLLKMPSVAQFVLTPSTEVCSPRYHRDANTALPLALRTVSRLVEREAGLMPG
